Assays:
Assay in all cases: cell_activity
[1] = tested on: ZFP 14025-VP16 (artificial); conditions: callus, control 2.90; 27% up-regulation p=0.05; more than 3-fold in some T0 events
[2] = tested on: ZFP 13722-KRAB1 (artificial); conditions: homozygous T2 immature seed, event 5212-4; no apparent effect in heterozygous
[3] = tested on: ZFP 13722-NtERF3 (artificial); conditions: homozygous T2 immature seed, event 5227-12, p=0.025; no apparent effect in heterozygous

Row | Sequence | activity (KasII/tubulin mRNA ratio) [1] | activity (% FatB5 mRNA reduction) [2] | activity (% FatB5 mRNA reduction) [3]
1 | CGTGGAGACGTCAAAAGA (double strand) [KASII 14025 target] | 3.69 | – | –
2 | AAGGAGAATTTTAGGGTTTGGGGAGACT (double strand) [FatB5 13722 target] | – | 15 | 21

Reference: patent publication US20110167521
